Biological target: ubiquitin (wild type, Q40Ub) (UniProt P0CG48 1-76)
Assay: NMR chemical shift perturbations of the conjugate against the free proteins

B1: Ubc13 C87K/K92T/K94Q (enzyme)
chain: MAGLPRRIIKETQRLLAEPVPGIKAEPDESNARYFHVVIAGPQDSPFEGGTFKLELFLPEEYPMAAPKVRFMTKIYHPNVDKLGRIKLDILTDQWSPALQIRTVLLSIQALLSAPNPDDPLANDVAEQWKTNEAQAIETARAWTRLYAMNNI
B1: binds.

— publication doi:10.1101/2023.05.22.541748 (bioRxiv, 2023)
